Assay results published in US20130012693.

How the values were obtained:
beta-NGF (Homo sapiens) [1] = target: beta-NGF (Homo sapiens) (UniProt P01138); assay: filter; details: BndU at Z' (n) positions [n positions 30,37,38,43,44,45,51,52,54 = modified dU]; SB17T-0.002, 37 C; Zorbax resin capture
beta-NGF (Homo sapiens) [2] = target: beta-NGF (Homo sapiens) (UniProt P01138); assay: cell_activity; details: PC12 neurite growth, 0.38 nM NGF

beta-NGF (Homo sapiens), sequence (P01138 122-241): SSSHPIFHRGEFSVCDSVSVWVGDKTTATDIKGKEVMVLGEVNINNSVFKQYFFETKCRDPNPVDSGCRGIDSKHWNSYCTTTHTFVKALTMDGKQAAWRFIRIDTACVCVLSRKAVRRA

| Sequence | Kd (beta-NGF (Homo sapiens) [1]) [nM] | IC50 (beta-NGF (Homo sapiens) [2]; BndU at Z' (n) positions [n positions 30,37,38,43,44,45,51,52,54 = modified dU], 3'-idT) [nM] | IC50 (beta-NGF (Homo sapiens) [2]; BndU at Z' (n) positions, 3'-idT in cell assays [n positions 3,10,11,16,17,18,24,25,27 = modified dU]) [nM] |
| --- | --- | --- | --- |
| GAGTGACCGTCTGCCTGCAGCGGGACACATGAGGACTTGGGGTTTAGCCGTTGTGGCACAGAGAAGAAACAAGACC [2426-66] | 5 | 2 | – |
| CATGAGGACTTGGGGTTTAGCCGTTGTG [2426-66-50] | – | – | 1 |
